# Source: article PMC7076015 (2020)
# B1: Flag-myc-hnRNP R (wild type) [not stated] / HA-KPNA7 [human] (parent complex)
# chain 1: MANQVNGNAVQLKEEEEPMDTSSVTHTEHYKTLIEAGLPQKVAERLDEIFQTGLVAYVDLDERAIDALREFNEEGALSVLQQFKESDLSHVQNKSAFLCGVMKTYRQREKQGSKVQESTKGPDEAKIKALLERTGYTLDVTTGQRKYGGPPPDSVYSGVQPGIGTEVFVGKIPRDLYEDELVPLFEKAGPIWDLRLMMDPLSGQNRGYAFITFCGKEAAQEAVKLCDSYEIRPGKHLGVCISVANNRLFVGSIPKNKTKENILEEFSKVTEGLVDVILYHQPDDKKKNRGFCFLEYEDHKSAAQARRRLMSGKVKVWGNVVTVEWADPVEEPDPEVMAKVKVLFVRNLATTVTEEILEKSFSEFGKLERVKKLKDYAFVHFEDRGAAVKAMDEMNGKEIEGEEIEIVLAKPPDKKRKERQAARQASRSTAYEDYYYHPPPRMPPPIRGRGRGGGRGGYGYPPDYYGYEDYYDDYYGYDYHDYRGGYEDPYYGYDDGYAVRGRGGGRGGRGAPPPPRGRGAPPPRGRAGYSQRGAPLGPPRGSRGGRGGPAQQQRGRGSRGSRGNRGGNVGGKRKADGYNQPDSKRRQTNNQQNWGSQPIAQQPLQQGGDYSGNYGYNNDNQEFYQDTYGQQWK
# chain 2: not shown
# Variants of: B1
# Test: co-immunoprecipitation (HA-IP, Flag western blot quantified); HEK293T(HA-KPNA7) cell extracts; input 2%, IP 30%; parent: 1
row,ratio to parent,Variant
1,0.2,"chain 1 K584A, chain 1 R585A, chain 1 R586A"
2,0.43,"chain 1 K414A, chain 1 K415A, chain 1 R416A"
3,0.21,"chain 1 K572A, chain 1 R573A, chain 1 K574A"
